The values that follow come from US5792742.

Where no end group is shown, it is not given here. [ ]: non-standard residue; d: D form. pGlu = O=C1CC[C@@H](C(=O)O)N1 Where only a bound is given, the exact number is not on record here.

Experiment [1] has as its target fibrin (fibrinogen dried on microtiter wells and converted with thrombin). The experiment is described as follows: competitive ELISA on fibrin-coated wells, competitor biotinylated Fn (2.3 nM).
Experiment [2] has the same target. The experiment is described as follows: competitive ELISA on fibrin-coated plates, competitor Fn (2.3 nM), 5,000 molar excess. In general terms: An ELISA detects its analyte on a solid surface through an enzyme-linked reagent.
Experiment [3] shares this target. The experiment is described as follows: competitive ELISA on fibrin-coated plates, competitor Fn.
The target is the same in experiment [4]. The experiment is described as follows: competitive ELISA against intact Fn on fibrin.
Experiment [5] shares this target. The experiment is described as follows: competitive ELISA on fibrin-coated plates, competitor Fn (2.3 nM).

B1: recombinant ^1 F1.^2 F1 module pair of fibronectin (peptide)
chain: QAQQMVQPQSPVAVSQSKPGCYDNGKHYQINQQWERTYLGNALVCTCYGGSRGFNCESKPEAEETCFDKYTGNTYRVGDTYERPKDSMIWDCTCIGAGRGRISCTI
modifications: N-terminal pyroglutamate; the major species lacks the NH2-terminal Gln-Ala dipeptide and its new N-terminal Gln is also pyroglutamate
Consider B1, for which, in experiment [1], the % inhibition of biotinylated Fn binding came to 15%. In experiment [2], this molecule had a % inhibition of Fn binding below 20%.
CRDEKTQMIYQQHQSWLRPVLRSNRVEYCWCNSGRAQCH (not fully specified (bridges); cysteine pairing not given here) [t-PA type 1 module] came in with a % inhibition of fibronectin binding in experiment [3] of 55%. Also, the % inhibition (so in the source) in experiment [4] came to 45%.

B2: recombinant ^1 F1 module of fibronectin (peptide)
chain: [pGlu]AQQMVQPQSPVAVSQSKPGCYDNGKHYQINQQWERTYLGNALVCTCYGGSRGFNCESKPE
modifications: not fully specified (bridges); also: major species lacks N-terminal Gln-Ala, its new N-terminal Gln also pyroglutamate
Turning to B2, in experiment [5], the % inhibition of Fn binding was below 20%.
